Values of other authors, collected in patent publication US9233143B2, “Medicinal agent for preventing exacerbation of malignant tumor, comprising combination of natriuretic peptide receptor GC-A and GC-B agonists” (National Cerebral and Cardiovascular Center, priority 2011, dated 2016).
Bridge positions count the residues as written; N and C are the ends. Ends that are not written are not given here.

Target: T1, natriuretic peptide receptor GC-B (Homo sapiens, UniProt P20594)
T1 sequence (P20594 23-1047): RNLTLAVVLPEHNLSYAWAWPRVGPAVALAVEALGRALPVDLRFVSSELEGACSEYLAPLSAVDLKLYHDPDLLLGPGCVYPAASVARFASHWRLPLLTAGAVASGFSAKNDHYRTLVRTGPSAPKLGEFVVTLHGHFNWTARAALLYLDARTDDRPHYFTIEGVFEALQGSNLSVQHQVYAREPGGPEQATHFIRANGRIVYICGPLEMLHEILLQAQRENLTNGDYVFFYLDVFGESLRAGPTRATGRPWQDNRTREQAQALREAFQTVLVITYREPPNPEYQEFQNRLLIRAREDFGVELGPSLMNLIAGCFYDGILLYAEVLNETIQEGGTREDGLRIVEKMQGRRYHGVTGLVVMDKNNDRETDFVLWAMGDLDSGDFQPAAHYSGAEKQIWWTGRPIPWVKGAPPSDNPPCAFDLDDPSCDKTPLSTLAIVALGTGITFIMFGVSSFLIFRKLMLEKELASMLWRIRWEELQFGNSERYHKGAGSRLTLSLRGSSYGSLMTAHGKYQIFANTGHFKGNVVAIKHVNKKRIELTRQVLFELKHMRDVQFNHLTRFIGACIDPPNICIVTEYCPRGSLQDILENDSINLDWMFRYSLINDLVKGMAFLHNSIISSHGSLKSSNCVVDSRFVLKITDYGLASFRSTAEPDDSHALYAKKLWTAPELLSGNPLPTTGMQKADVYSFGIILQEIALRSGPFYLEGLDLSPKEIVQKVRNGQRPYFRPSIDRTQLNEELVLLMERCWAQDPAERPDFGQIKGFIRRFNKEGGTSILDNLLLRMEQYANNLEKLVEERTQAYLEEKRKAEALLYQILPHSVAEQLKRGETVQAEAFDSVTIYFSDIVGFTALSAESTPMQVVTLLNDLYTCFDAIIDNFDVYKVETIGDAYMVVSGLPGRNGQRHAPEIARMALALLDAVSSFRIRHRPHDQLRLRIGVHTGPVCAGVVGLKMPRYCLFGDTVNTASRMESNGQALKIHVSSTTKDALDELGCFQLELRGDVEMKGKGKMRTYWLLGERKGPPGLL
Conditions: literature reports; cited from earlier work

Substance: hCNP6-22: a peptide consisting of amino acids from position 6 to position 22 of SEQ ID NO: 7 (only the ring structure) (CFGLKLDRIGSMSGLGC; disulfide 1-17 (inferred); listed as Homo sapiens)
- GC-B agonist activity: comparable to that of hCNP-22
